This note sets out measurements from patent US20190375831A1 (US Dept. of Health and Human Services, published 2019).

Residue numbers refer to the chain shown, from its start.

Experiment [1] addresses T1, PfCSP on P. falciparum sporozoites (PfSPZ) (Plasmodium falciparum, UniProt P19597 19-374). In words: immunofluorescence assay on PfSPZ.
Experiment [2] addresses T2, recombinant PfCSP (rPfCSP, residues 21-375) (Plasmodium falciparum, UniProt P19597 21-375).
T2 construct: also called recombinant wild type PfCSP; not shown: C-terminal Avi-tag, HRV3C-processing tag and His-purification tag
Description: ITC, CIS43 Fab injected into rPfCSP, two sets of sites, first set. (In ITC the heat of successive injections is recorded.)

The target in experiment [3] is T2, recombinant PfCSP (rPfCSP, residues …). Description: ITC, CIS43 Fab injected into rPfCSP, two sets of sites, second set.
The target is the same in experiment [4]. In words: ITC, first binding event.
Experiment [5] has the same target. Description: biolayer interferometry, biotinylated CSP on the sensor, whole IgG in solution; apparent KD. Background: In BLI a coated tip is dipped into the sample, and binding shifts an interference pattern.
Experiment [6] has the same target. Description: ELISA on coated rPfCSP, OD405nm.
For experiment [7] the target is unchanged. In words: ITC, second binding event.
In experiment [8] the target is T1, PfCSP on P. falciparum sporozoites …. Description: ELISA on coated PfSPZ, OD405nm. For orientation: An ELISA detects its analyte on a solid surface through an enzyme-linked reagent.
In experiment [9] the target is T2, recombinant PfCSP (rPfCSP, residues …). Description: ITC, mAb injected into rPfCSP, one set of sites (Kd = […] nM).
Experiment [10] has the same target. In words: ITC, mAb injected into rPfCSP, one set of sites (Kd = 51 nM).
Experiment [11] shares this target. Description: ITC, one binding event.
Experiment [12] has the same target. In words: ITC, mAb injected into rPfCSP, one set of sites (Kd = […] nM).

T1 sequence (P19597 19-374 limits assumed): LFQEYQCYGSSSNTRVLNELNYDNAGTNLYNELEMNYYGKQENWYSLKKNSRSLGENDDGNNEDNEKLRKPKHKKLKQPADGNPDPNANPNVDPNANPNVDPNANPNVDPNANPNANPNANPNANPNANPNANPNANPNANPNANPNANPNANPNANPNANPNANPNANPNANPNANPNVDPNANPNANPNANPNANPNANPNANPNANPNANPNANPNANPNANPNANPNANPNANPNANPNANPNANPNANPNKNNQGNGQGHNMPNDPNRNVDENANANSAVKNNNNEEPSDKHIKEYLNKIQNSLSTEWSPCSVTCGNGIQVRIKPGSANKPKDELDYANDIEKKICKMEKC
T2 sequence (P19597 21-375): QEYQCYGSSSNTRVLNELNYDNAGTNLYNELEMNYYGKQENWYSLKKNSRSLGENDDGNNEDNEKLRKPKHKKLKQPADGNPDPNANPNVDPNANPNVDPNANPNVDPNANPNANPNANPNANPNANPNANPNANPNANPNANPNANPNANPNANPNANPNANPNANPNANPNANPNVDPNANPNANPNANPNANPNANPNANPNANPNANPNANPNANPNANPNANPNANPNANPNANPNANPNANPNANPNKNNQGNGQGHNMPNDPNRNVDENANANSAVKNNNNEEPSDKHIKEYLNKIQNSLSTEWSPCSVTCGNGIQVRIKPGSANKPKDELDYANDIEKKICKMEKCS

B1: CIS04 (antibody, V domains shown)
VH: QVQLVQSGAEVKKPGASVKVSCKASGYTFTSYAIHWVRQAPGQRLEWMGWIKAGNGDTRYSQKFQGRVTITRDTSATTAYMELSSLRSEDTAVYYCGLLTVLTPDDAFDIWGQGTMVTVSS
VL: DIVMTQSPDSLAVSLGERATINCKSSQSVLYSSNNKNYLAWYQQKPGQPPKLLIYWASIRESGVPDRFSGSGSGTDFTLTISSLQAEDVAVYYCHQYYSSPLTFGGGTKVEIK
notes: also called mAb CIS04
With B1, the binding result in [1] is given as “binds”.

B2: CIS43 Fab (Fab, V domains shown)
VH: B1 VH with D57N, G66D, A76T, G97A
VL: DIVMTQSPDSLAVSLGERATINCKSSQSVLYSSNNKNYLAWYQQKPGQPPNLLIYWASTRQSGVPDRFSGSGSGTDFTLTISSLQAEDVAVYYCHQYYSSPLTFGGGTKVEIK
In the case of B2, in [2], the “-TΔS1” value amounted to 12 kcal/mol, the Kd came out at 16 nM, the ΔG1 is -10.6 kcal/mol and the ΔH1 is -22.6 kcal/mol. In experiment [3], the “-TΔS2” value is -4.3 kcal/mol, the Kd came out at 250 nM, the ΔG2 is -9 kcal/mol and the ΔH2 is -4.7 kcal/mol.

B3: mAb CIS34 (antibody, human IgG1, kappa, V domains shown)
VH: QVQLVESGGGVVQPGRSLRLSCAASGFTFSSYGIHWVRQAPGKGLEWVAVIWYDGSKKYYGDSVKGRFTISRDNSKNTLYLQMNSLRVEDTAVYYCARAVIAATGTRGYWFDPWGQGTLVTVSS
VL: DIIMTQSPVSLSASVGDRVTITCRASQSISSHLNWYQQKPGKAPKLLIYAASSLQSGVPSRFSGSGSGTDFTLTISSLQPEDFATYSCQQTYRGFTFAPGTKVDIKR
For the molecule B3, the Kd in [4] amounted to 31 nM; in experiment [5] it was 1.5 nM; in experiment [7] it was 80 nM. In addition, the concentration giving a half-maximal response (EC50 (read off the curve)) (commonly the concentration that produces a half-maximal response) in [6] is about 3 ng/mL. Further, in experiment [8], the binding result is given as “binds”.

B4: mAb CIS23 (antibody, V domains shown)
VH: EVQLVESGGGVVQPGRSLRLSCAASGFTFSSYGMYWVRQAPGKGLEWVALISHDGSNKFYADSVKGRFTISRDNSKNTLYLQMNSLRAEDTAVYYCAKDLGYSSSWGYFDYWGQGTLVTVSS
VL: EIVLTQSPATLSLSPGERATLSCRASQSVSSYLAWYQQKPGQAPRLLIYDASNRATGIPARFSGSGSGTDFTLTISSLEPEDFAVYYCQQRSNWYTFGQGTKLEIK
On to B4, for which the binding result in experiment [8] is given as “binds”. In experiment [9], the “-TΔS” value turned out to be 13.1 kcal/mol, the ΔG is -10.4 kcal/mol and the ΔH was -23.5 kcal/mol.

B5: mAb CIS42 (antibody, V domains shown)
VH: QVQLVQSGSELKKPGASVKVSCKTSGYTFTTYAMNWVRQAPGQGLEWMGWINTNTGNPTYAPGFTGRFVFSFDTSVSTAYLQISSLKAEDTAVYYCARVYSYGVPFDYWGQGTLVTVSS
VL: QSVLTQPASVSGSPGQSITISCTATSSNVGSFNLVSWYQHHPGKAPKLIIHEVSKRPSGASNRFSGSKSGNTASLTISGLQAEDEADYYCCSYVGSDTWVFGGGTKLTVL
As to B5, in experiment [10], the “-TΔS” value turned out to be 12.8 kcal/mol, the ΔG was -9.9 kcal/mol and the ΔH was -22.7 kcal/mol. The Kd in experiment [5] worked out at 0.76 nM. Further, in experiment [11], the Kd stood at 51 nM. The “EC50 (read off the curve)” value in experiment [6] was about 5 ng/mL. The binding result in experiment [8] is “binds”.

B6: CIS06 (antibody, V domains shown)
VH: QVQLVQSGPEVKKPGTSVKVSCKASGFTFSSSAVQWVRQARGQRLEWIGWIVVGSGKTKYAQNFQQRVTITRDMSTSTAYLELSTLRSEDTAVYYCAAVVNWNDESGFDPWGQGTLVTVSS
VL: DIQMTQSPSSLSAFVGDRVTITCRASQSIGTYLNWYQQKVGQAPKLLIYTASSLRSGVPSRFSGSGSGTDFTLTITSLQPEDFATYYCQQSYSTYTFGQGTKLEIK
notes: also called mAb CIS06
As for B6, the “EC50 (read off the curve)” value in [6] was about 100 ng/mL.

B7: mAb10 (antibody, human IgG1, kappa, V domains shown)
VH: EVQLVESGGGVVQPGRSLRLSCEASGFTFSTYGMHWVRQAPGKGLEWVAIIWHDGSKKYHADSVRGRFTISRDNSKNTLYLQMNSLRAEDTAVYFCARVGNYGGDWGAGFDYWGQGTLVTVSS
VL: DIQMTQSPSFLSASVGDRVTIACRASQSISSWLAWYQQKPGKAPKLLIYHASSLESGVPSRFSGSASGTEFALTISSLQPDDFATYYCQQYSSYWTFGQGTKVEIKR
For B7, in experiment [12], the “-TΔS” value came out at 22.7 kcal/mol and the ΔH was -33 kcal/mol.
